Four molecules from US20210301005A1 (Genentech, published 2021) can be followed below.

Like-named read-outs stand apart in the source and are kept apart here. A value given as a limit tells only on which side of the number the result lay.

For test [1], the target named is T1, human TGFβ1, mature receptor-binding domain (human, UniProt P01137 279-390).
T1 construct: Peprotech; also called TGFb1
Nature of the test: SPR. (In general: In SPR one partner is held on a chip, and binding of the other changes the refractive index at the surface.)

The target of test [2] is T2, human TGFβ3, mature dimeric form (human, UniProt P10600 301-412).
T2 sequence: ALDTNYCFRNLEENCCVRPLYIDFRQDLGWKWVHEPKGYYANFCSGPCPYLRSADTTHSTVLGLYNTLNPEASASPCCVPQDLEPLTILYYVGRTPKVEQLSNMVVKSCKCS
In words: cell-based or functional assay.

Test [3] has as its target T3, human TGFβ2, mature receptor-binding domain (human, UniProt P09858 303-414 (pig entry), The mature TGFβ2 is a disulfide-linked homodimer of this 112-residue chain. The 4A11 epitope spans both monomers (p-1207).).
T3 sequence: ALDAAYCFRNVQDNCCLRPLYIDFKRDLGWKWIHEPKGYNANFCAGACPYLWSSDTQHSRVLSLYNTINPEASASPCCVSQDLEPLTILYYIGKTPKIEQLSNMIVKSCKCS
In words: cell-based or functional assay.

In test [4] the target is T1, human TGFβ1, mature receptor-binding …. In words: cell-based or functional assay.
For test [5], the target named is T2, human TGFβ3, mature dimeric form. Nature of the test: cell-based or functional assay. This is another data set of the same source.
Test [6] addresses T3, human TGFβ2, mature receptor-binding …. Nature of the test: cell-based or functional assay. The source holds these as a separate data set.
Test [7] has as its target T1, human TGFβ1, mature receptor-binding …. In words: cell-based or functional assay. The source holds these as a separate data set.
The target of test [8] is T2, human TGFβ3, mature dimeric form. In words: cell-based or functional assay. The source holds these as a separate data set.
Test [9] deals with T3, human TGFβ2, mature receptor-binding …. In words: cell-based or functional assay. The source holds these as a separate data set.
In test [10] the target is T1, human TGFβ1, mature receptor-binding …. In words: cell-based or functional assay. This is another data set of the same source.
In test [11] the target is T2, human TGFβ3, mature dimeric form. In words: BIAcore T200. The protocol:
(§1) For binding affinity determinations of all humanized 2A10 antibodies, Surface Plasmon Resonance (SPR) measurement with a BIAcore™-T200 instrument was used. Briefly, series S CM5 biosensor chip with protein A was first applied to capture each humanized 2A10 variant to achieve approximately 100 response units (RU) on each flow cell, following by injection of 3-fold serial dilutions of human TGFβ1, TGFβ2 or TGFβ3 (0.02 nM to 5 nM) in HBS-EP buffer (0.01M HEPES pH 7.4, 0.15M NaCl, 3 mM EDTA and 0.05% v/v surfactant P20) at 25° C. with a flow rate of 50 μl/min for kinetics measurement. Association rates (ko.) and dissociation rates (koff) were calculated using a simple one-to-one Langmuir binding model (BIAcore T200 evaluation software version 2.0) to determine the equilibrium dissociation constant (KD), which was calculated as the ratio koff/kₒₙ.
(§2) Binding affinity determinations of all humanized 4A11 antibodies were performed using SPR measurement with a BIAcore™-T200 instrument, as described above in Example 6 ([…]).

Test [12] has as its target T3, human TGFβ2, mature receptor-binding …. Nature of the test: BIAcore T200. As for the experimental part:
as §1, §2

For test [13], the target named is T1, human TGFβ1, mature receptor-binding …. In words: BIAcore T200. As for the experimental part:
as §1, §2

Test [14] deals with T2, human TGFβ3, mature dimeric form. In words: cell-based or functional assay. This is another data set of the same source.
Test [15] has as its target T3, human TGFβ2, mature receptor-binding …. Nature of the test: cell-based or functional assay. The source holds these as a separate data set.
The target of test [16] is T1, human TGFβ1, mature receptor-binding …. Nature of the test: cell-based or functional assay. This is another data set of the same source.
The target in test [17] is T2, human TGFβ3, mature dimeric form. Nature of the test: BIAcore T200. The protocol: as §1, §2
This is another data set of the same source.

Test [18] deals with T3, human TGFβ2, mature receptor-binding …. In words: BIAcore T200. The protocol: as §1, §2
The source holds these as a separate data set.

In test [19] the target is T2, human TGFβ3, mature dimeric form. Nature of the test: BIAcore T200. Put shortly:
(§3)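 Humanized antibodies captured on protein A CM5 chip (~100 RU), then 3-fold serial dilutions of TGFβ (0.02–5 nM) injected in HBS-EP pH 7.4 at 25° C., 50 μl/min. kon and koff from 1:1 Langmuir fit; KD = koff/kon.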
This is another data set of the same source.

In test [20] the target is T3, human TGFβ2, mature receptor-binding …. In words: BIAcore T200. Put shortly:
as §3
This is another data set of the same source.

The target of test [21] is T1, human TGFβ1, mature receptor-binding …. Nature of the test: BIAcore T200. Put shortly: as §3
This is another data set of the same source.

Test [22] deals with T2, human TGFβ3, mature dimeric form. Nature of the test: SPR.
The target of test [23] is T3, human TGFβ2, mature receptor-binding …. In words: SPR.
Test [24] has as its target T2, human TGFβ3, mature dimeric form. Nature of the test: cell-based or functional assay. This is another data set of the same source.
Test [25] has as its target T3, human TGFβ2, mature receptor-binding …. In words: cell-based or functional assay. This is another data set of the same source.
For test [26], the target named is T1, human TGFβ1, mature receptor-binding …. In words: cell-based or functional assay. The source holds these as a separate data set.
The target in test [27] is T3, human TGFβ2, mature receptor-binding …. In words: cell-based or functional assay. This is another data set of the same source.
The target in test [28] is T2, human TGFβ3, mature dimeric form. In words: cell-based or functional assay. The source holds these as a separate data set.
The target in test [29] is T3, human TGFβ2, mature receptor-binding …. Nature of the test: cell-based or functional assay. This is another data set of the same source.
Test [30] concerns the target T1, human TGFβ1, mature receptor-binding …. Nature of the test: cell-based or functional assay. This is another data set of the same source.
Test [31] deals with T4, mouse TGFβ2, mature peptide (mouse, UniProt P27090 303-414).
T4 sequence (looked up): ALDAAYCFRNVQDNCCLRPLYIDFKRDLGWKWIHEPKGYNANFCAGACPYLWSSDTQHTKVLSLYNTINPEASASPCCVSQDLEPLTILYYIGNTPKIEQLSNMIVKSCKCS
Nature of the test: cell-based or functional assay.

Test [32] has as its target T3, human TGFβ2, mature receptor-binding …. In words: cell-based or functional assay. The source holds these as a separate data set.
Test [33] has the same target. In words: SPR. The source holds these as a separate data set.
Test [34] has the same target. Nature of the test: BIAcore T200. The source holds these as a separate data set.
In test [35] the target is T4, mouse TGFβ2, mature peptide. In words: Biacore SPR.
Test [36] addresses T3, human TGFβ2, mature receptor-binding …. In words: Biacore SPR.

T1 sequence (P01137 279-390 limits assumed): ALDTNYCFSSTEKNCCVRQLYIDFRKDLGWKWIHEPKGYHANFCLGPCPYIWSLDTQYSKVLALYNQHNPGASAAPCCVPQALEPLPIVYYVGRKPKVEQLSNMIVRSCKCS

B1: 21D1 (antibody, V domains shown)
VH: QVQLVQSGAEVKKPGASVKVSCKASGYTFTDYNIHWVRQAPGQGLEWMGYIYPYDGETGYNQKFKSRVTMTTDTSTSTAYMELRSLRSDDTAVYYCARGYRWFAYWGQGTLVTVSS
VL: DIQMTQSPSSLSASVGDRVTITCRASSSVPYMHWFQQKPGKAPKSLIYATSNPAYGVPSRFSGSGSGTDFTLTISSLQPEDFATYYCQQWDLNPPAFGQGTKLEIKR
In turn, B1 yielded a dissociation constant (Kd) in test [1] of 0.008 nM. The “Blocking IC50” value was over 200 nM in test [2], over 200 nM in test [3] and 0.013 nM in [4].

B2: h4A11.v7 (antibody, human IgG1, kappa, N297G)
heavy: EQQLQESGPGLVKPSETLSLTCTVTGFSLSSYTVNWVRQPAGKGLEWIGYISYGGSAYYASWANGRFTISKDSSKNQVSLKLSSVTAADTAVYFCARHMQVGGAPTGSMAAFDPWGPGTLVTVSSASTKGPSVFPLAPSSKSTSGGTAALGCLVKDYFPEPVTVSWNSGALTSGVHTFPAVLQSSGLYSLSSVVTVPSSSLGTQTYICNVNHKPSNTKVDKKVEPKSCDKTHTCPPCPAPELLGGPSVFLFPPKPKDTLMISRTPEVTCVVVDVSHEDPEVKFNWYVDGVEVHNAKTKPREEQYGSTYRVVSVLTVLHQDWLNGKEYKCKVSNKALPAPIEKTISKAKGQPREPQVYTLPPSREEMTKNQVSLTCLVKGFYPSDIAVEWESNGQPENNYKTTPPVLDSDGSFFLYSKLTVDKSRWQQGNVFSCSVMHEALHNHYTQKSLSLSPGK
light: EAVLTQSPGTLSLSPGERATLSCQSSQSVYNNNYLSWFQQKPGQPPRLLIYGASTLTSGVPDRFSGSGSGTDFTLTISRLEPEDFAVYYCAGGYSGSSDKYAFGGGTKVEIKRTVAAPSVFIFPPSDEQLKSGTASVVCLLNNFYPREAKVQWKVDNALQSGNSQESVTEQDSKDSTYSLSSTLTLSKADYEKHKVYACEVTHQGLSSPVTKSFNRGEC
B2: the “HEKBlue TGFβ blocking IC50” value in test [5] is 0.03 nM; in test [6], 0.09 nM; in test [7] it was over 200 nM; in [8] it was 0.03 nM; in [9], 0.09 nM; in test [10], over 200 nM. For the same molecule, the “HEKBlue TGFβ blocking IC50” value was 0.03 nM in test [14], 0.09 nM in [15] and over 200 nM in test [16]. For the same molecule, the Kd in test [11] is 0.0097 nM; in [12] it was 0.0063 nM; in [13], over 5 nM; in test [17], 0.0097 nM; in test [18] it was 0.0063 nM; in test [19] it was 0.0097 nM. The results for the Kd in test [20] and in test [21] were 0.0063 nM and over 5 nM, respectively.

B3: 1D11 (antibody, V domains shown)
VH: QVQLQQSGPELVRPGASVKLSCKASGYIFITYWMNWVKQRPGQGLEWIGQIFPASGSTNYNEMFEGKATLTVDTSSSTAYMQLSSLTSEDSAVYYCARGDGNYALDAMDYWGQGTSVTVSS
VL: DIVLTQSPASLAVSLGQRATISCRASESVDSYGNSFMHWYQQKSGQPPKLLIYLASNLESGVPARFSGSGSRTDFTLTIDPVEADDAATYYCQQNNEDPLTFGAGTKLEIK
notes: also called pan-TGFβ antibody 1D11
With B3, the Kd worked out at 0.007 nM in test [22], 0.009 nM in test [23] and 0.038 nM in test [1]. For the same molecule, the “Blocking IC50” value in test [2] worked out at 0.04 nM; in [3] it was 3.6 nM; in [4], 0.5 nM.

B4: 6F12 (antibody, V domains shown)
VH: QVQLKESGPGLVQPSQTLSLTCTVSGFSLTTYNVHWVRQPPGKGLEWMGLIWNTGGTRYNSALKSRLSISKDTSKSQVFLRMNSLQTEDTATYYCARDPVPNKWHFDFWGPGTMVTVSS
VL: DIQMTQSPASLSASLGETVTIECLASEDIYSNLAWYQQKPGKSPQLLIYDARSLQDGVPSRFSGSESGPQYSLEINSLQSEDAVTYFCQQHHAYPFTFGSGTKLEIK
notes: anti-TGFβ2; called rat and rabbit in different places; also called rat 6F12; r6F12
Turning to B4, the “HEKBlue TGFβ blocking IC50” value in test [24] was over 200 nM; in test [25], 0.004 nM; in [26], over 200 nM; in [28], over 200 nM; in [29], 0.004 nM; in test [30], over 200 nM. Further, the “cell-based IC50” value in test [27] is under 0.25 nM. Also, the “fold potency against 1D11” value in test [27] was about 100 fold. Besides, the dissociation constant (Kd) in test [23] was under 0.001 nM; in test [33], under 0.01 nM; in test [34], at most 0.0005 nM; in test [35] it was under 0.001 nM; in [36], under 0.001 nM. Also, the results for the “IC50 (read off the curve)” value in test [31] and in test [32] were about 0.06 nM and about 0.03 nM, respectively. Also, the “Blocking IC50” value in [2] is over 500 nM; in test [3], 0.04 nM; in [4], over 500 nM.

One may read the Kd as the constant that tells how readily two partners part at equilibrium.
